These results are taken from patent CN113461822A.

B1: 抗体1 (实施例11; 2D6抗体) (antibody, human IgG1, kappa, V domains shown)
VH: EIQLVQSGSEVVRTGTSVKLSCKASGYRFTSYWMHWVKQRPGQGLEWIGNINPGDGRTNYDENFKNKATLTVDPSSNTAYMQLNSLTSEDSAVYYCTRDGNYGIFDYWGRGTSVTVSS
VL: NIVMTQSPSSLVVSAGEKVTLSCKSSQSLLYSSNQKNYLAWFQQKPGQSPKLLIYWASTRESGVPDRFTGSGSRTDFTLTISSVQAEDMAVYYCHQYIYLWSFGGGSKLEIER
B2: 抗体6 (实施例16) (antibody, human IgG1, kappa, V domains shown)
VH: EVKLVESGGGLVQPGGSRKLSCAASGFTFSSYWMHWVRQAPEKGLEWVANINPGDGRTNYDENFKNRFTISRDNPENTLFLQMTSLTSEDTAIYYCARRAAYGNYDWYFDVWGAGTTVTVSS
VL: B1 VL
B3: 抗体5 (实施例15) (antibody, human IgG1, kappa, V domains shown)
VH: B1 VH
VL: B1 VL with N1D, V3E, M4L, E61G, S107T, E112K
B4: 抗体4 (实施例14) (antibody, human IgG1, kappa, V domains shown)
VH: EVKLVESGGGLVQPGGSRKLSCAASGFTFSSYWMHWVRQAPEKGLEWVAYISSGGITIYYADTVKGRFTISRDNPENTLFLQMTSLTSEDTAIYYCARRAAYGNYDWYFDVWGAGTTVTVSS
VL: B1 VL

Positions count from the first letter of the chain named.

One assay deals with Scl-70抗原 (人DNA拓扑异构酶I的C末端片段的70kD分子量蛋白) (human) (UniProt P11387). Description: chemiluminescence immunoassay on Scl-70-coated magnetic microspheres, ABEI-anti-human IgG; CHO supernatant undiluted.
With B1, the 原液RLU stood at 1.64e+06 RLU.
On the same count and under the same terms, then B2, with 1.08e+06 RLU.
Same read-out and setting: then B3, with 2e+06 RLU; and B4, with 2.46e+06 RLU.

For the next assay the target is unchanged. Description: chemiluminescence immunoassay on Scl-70-coated magnetic microspheres, ABEI-anti-human IgG; CHO supernatant diluted 10-fold.
B1 came in with a 稀释10倍RLU of 1.01e+06 RLU.
Still for that read-out and setting: the result for B2 reads 801000 RLU; that for B3, 1.31e+06 RLU; that for B4, 1.74e+06 RLU.

The next assay shares this target. Briefly: chemiluminescence immunoassay on Scl-70-coated magnetic microspheres, ABEI-anti-human IgG; CHO supernatant diluted 30-fold.
In turn, B1 showed a 稀释30倍RLU of 355000 RLU.
For B2, the 稀释30倍RLU worked out at 329000 RLU.
For the molecule B3, the 稀释30倍RLU was 421000 RLU.
Still for that read-out and setting: then B4, with 609000 RLU.

For the next assay the target is unchanged. Description: chemiluminescence immunoassay on Scl-70-coated magnetic microspheres, ABEI-anti-human IgG; CHO supernatant diluted 50-fold.
B1: the 稀释50倍RLU came to 220000 RLU.
Still for that read-out and setting: then B2, with 177000 RLU; and B3, with 239000 RLU.
On the same count and under the same terms, the result for B4 reads 379000 RLU.

The target is the same in another assay. Description: chemiluminescence immunoassay on Scl-70-coated magnetic microspheres, ABEI-anti-human IgG; CHO supernatant diluted 100-fold.
B1: the 稀释100倍RLU turned out to be 140000 RLU.
Regarding B2, the 稀释100倍RLU was 86400 RLU.
Still for that read-out and setting: the result for B3 reads 129000 RLU; that for B4, 171000 RLU.

Another assay shares this target. Description: chemiluminescence immunoassay on Scl-70-coated magnetic microspheres, ABEI-anti-human IgG; CHO supernatant diluted 150-fold.
For the molecule B1, the 稀释150倍RLU was determined as 73100 RLU.
Still for that read-out and setting: then B2, with 57600 RLU; and B3, with 89300 RLU; and B4, with 124000 RLU.

The next assay has the same target. Description: chemiluminescence immunoassay on Scl-70-coated magnetic microspheres, ABEI-anti-human IgG; CHO supernatant diluted 200-fold.
In the case of B1, the 稀释200倍RLU was 55400 RLU.
The same measure, in the same setting: then B2, with 43500 RLU; and B3, with 59200 RLU; and B4, with 85700 RLU.
